We go through 1 substance from publication PMC12685063.

This experiment addresses Shigella flexneri LptDE complex (SfLptDE), His6 tag on LptE (Shigella flexneri). In words: SEC.

“receptor binding protein (RBP) of the small siphophage Oekolampad (bas018) (natural protein)” gave a percent RBP (Oeko) binding (complex formation after 48 h, band densitometry against LptE) of 15 to 35%.
